Data set [1] addresses T1, whole MAC (C5b6, C7, C8αβγ, human C9) formed on liposomes (Homo sapiens).
T1 construct: C5b of C5b6: beta chain of complement C5; C5b of C5b6: alpha' chain of complement C5 (alpha chain without C5a); complement component C6 of C5b6; complement component C7; complement component C8 alpha chain; complement component C8 beta chain; complement component C8 gamma chain; complement component C9, human, wild type, as in m8; oligomeric in the MAC; also called C5b-9; oligomeric human C9 …
As to the kind of experiment: far-Western, overlay or dot blot; slot immunoblot of MAC formed on liposomes from C5b6 (1 to 16.8 nM), C7 30 nM, C8 30 nM, C9 7 nM; probed with aE11. The following applies: both partners purified.

For data set [2], the target named is T2, polyC9 (in vitro homo-oligomerised human C9, wild type) (human).
T2 construct: complement component C9, human, wild type, cloned in pSecTag2A; Tag-less purification; also called oligomeric C9; wild type oligomeric C9; source: Expi293F, purified (DEAE, CHT, SEC); oligomerised by incubating 1 mg/mL C9 overnight at 37 °C; copies: 22
Kind of data set: SPR; aE11 IgG amine-coupled to a CM5 chip (~700 RU), polyC9 as analyte; Biacore T200, 25 °C; 10 mM HEPES-NaOH pH 7.2, 150 mM NaCl, 1 mM EDTA, 0.005% P20; multi-cycle kinetics; maximum response as relative measure; one-to-one model disregarding multivalency. The settings on record: both partners purified.

Data set [3] deals with the molecule itself. As to the kind of experiment: SEC; analytical size exclusion (Superdex 200 Increase 5/150 GL) of C9 after the polyC9 reaction (10 mM HEPES pH 7.2, 50 mM NaCl, overnight at 37 °C); oligomer in the void volume (~1.2 mL), monomer at ~2.1 mL. Background: SEC sorts molecules by how far they enter the pores of the column.

These results are taken from article PMC9838529, “The neoepitope of the complement C5b-9 Membrane Attack Complex is formed by proximity of adjacent ancillary regions of C9” (Communications Biology, 2023).

T2 sequence (chain, as listed by the source): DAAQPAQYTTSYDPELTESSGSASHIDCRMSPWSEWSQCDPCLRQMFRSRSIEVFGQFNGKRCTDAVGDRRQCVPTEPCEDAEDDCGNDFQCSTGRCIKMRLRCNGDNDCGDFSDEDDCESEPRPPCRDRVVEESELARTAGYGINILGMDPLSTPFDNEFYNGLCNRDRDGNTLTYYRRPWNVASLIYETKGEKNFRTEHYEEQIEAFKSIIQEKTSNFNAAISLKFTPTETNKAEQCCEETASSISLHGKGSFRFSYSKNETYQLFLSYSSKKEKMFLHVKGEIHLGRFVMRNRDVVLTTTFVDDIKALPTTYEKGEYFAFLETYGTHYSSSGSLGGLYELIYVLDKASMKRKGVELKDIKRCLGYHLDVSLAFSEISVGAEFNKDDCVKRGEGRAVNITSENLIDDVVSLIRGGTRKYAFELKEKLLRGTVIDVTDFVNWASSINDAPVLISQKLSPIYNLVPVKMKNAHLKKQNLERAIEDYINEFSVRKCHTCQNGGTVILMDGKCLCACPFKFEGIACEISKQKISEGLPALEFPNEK
T1 sequence (P02748 22-559): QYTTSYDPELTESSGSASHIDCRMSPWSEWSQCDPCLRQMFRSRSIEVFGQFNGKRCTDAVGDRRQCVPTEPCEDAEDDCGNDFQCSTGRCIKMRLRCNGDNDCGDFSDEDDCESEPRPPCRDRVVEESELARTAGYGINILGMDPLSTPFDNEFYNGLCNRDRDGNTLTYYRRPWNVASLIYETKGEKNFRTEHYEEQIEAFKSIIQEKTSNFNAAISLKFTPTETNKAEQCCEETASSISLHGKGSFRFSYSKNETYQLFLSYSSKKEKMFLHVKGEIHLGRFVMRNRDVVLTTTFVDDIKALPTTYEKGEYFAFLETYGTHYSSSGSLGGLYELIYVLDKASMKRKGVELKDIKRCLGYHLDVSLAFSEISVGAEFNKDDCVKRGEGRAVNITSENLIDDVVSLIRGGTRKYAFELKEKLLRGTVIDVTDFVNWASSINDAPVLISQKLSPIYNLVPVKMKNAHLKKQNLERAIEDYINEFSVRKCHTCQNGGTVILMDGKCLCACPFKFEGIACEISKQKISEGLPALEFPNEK

B1: aE11 IgG (antibody, V domains shown)
VH: QVQLKESGPGLVAPSQSLSITCTVSGFSLTVYGVNWIRQPPGKGLEWLGMIWGDGSTDYNSALKSRLSITKDNSKSQVFLKMNSLQTDDTARYYCARDRSYGGSSAWFGYWGQGTLVTVSA
VL: DIQMTQTTSSLSASLGDRVTISCRASHDISNYLNWYQQKPDGTLKLLIYYTSRLHSGVPSRFSGSGSGTDYSLTISNLEQEDVATYFCQQGNYLPYTFGGGTKLEIK
notes: heavy chain of mouse monoclonal aE11; variable region as the heavy chain of m1 in PDB 8DE6; light chain (kappa) of mouse monoclonal aE11; variable region as the light chain of m1 in PDB 8DE6; also called monoclonal aE11; full aE11 IgG; source: purified from hybridoma supernatant by protein G chromatography
For the molecule B1, the binding result in data set [1] is listed as “binds”. In data set [2], this molecule displayed a koff of approximately 1e-06 s⁻¹.

B2: human complement C9 V68E (natural protein)
chain: not shown
notes: complement component C9, human, human-to-murine point mutant; source: Expi293F, purified tag-less (anion exchange, CHT, SEC)
Regarding B2, in data set [3], the binding result is “binds”.

B3: human complement C9 R65Q/V68E/P72E (natural protein)
chain: not shown
notes: complement component C9, human, human-to-murine triple mutant; also called triple mutant; source: Expi293F, purified tag-less (anion exchange, CHT, SEC)
For B3, in data set [3], the binding result is recorded as “binds”.

Usually koff stands for a measure of how fast the partners let go of each other. A high value points to a short-lived complex.
